Here are results for four molecules from PMC10415282, “High resolution cryo-EM and crystallographic snapshots of the actinobacterial two-in-one 2-oxoglutarate dehydrogenase” (Nature Communications, 2023).

As a reminder, the stoichiometry N is the number of molecules, sites or subunits per partner or assembly.

The target of one data set is T1, OdhA (Corynebacterium glutamicum, UniProt Q8NRC3).
T1 construct: full length residues 1-1221, E. coli BL21(DE3), N-terminal His6-TEV tag cleaved for cryo-EM (OdhA-His6 kept for SPR); homohexamer, ~800 kDa
Description: cryo-EM structure, […] Å. The data set is classed as binding. Particulars: allosteric, E1o domain pocket; no ligand added (co-purified from E. coli); activated conformation.

Data set [1] deals with the molecule itself. Description: crystal structure; MsKGD (10 mg/ml, 2 mM ThDP, 5 mM MgCl2) co-crystallised with GarA at 1:1 molar ratio; 0.1 M bicine pH 8.0, 30% PEG550MME, 0.2 M NaCl; 4.6 Å.
Data set [2] deals with the molecule itself. Description: AUC; sedimentation velocity, 20 °C, 30,000 rpm, seven concentrations from 4 mg/ml to 0.0625 mg/ml, 20 mM Hepes pH 7.5, 500 mM NaCl.
Data set [3] concerns the molecule itself. Description: crystal structure; OdhAΔ97 (26 mg/ml) with 5 mM CoASH; 0.1 M Hepes-NaOH pH 7.5, 5% PEG 4000, 30% MPD; 2.5 Å; protomers related by crystallographic symmetry.

As for `CC(=O)SCCNC(=O)CCNC(=O)[C@H](O)C(C)(C)COP(=O)(O)OP(=O)(O)OC[C@H]1O[C@@H](n2cnc3c(N)ncnc32)[C@H](O)[C@@H]1OP(=O)(O)O` [acetyl-CoA], at OdhA, the “cryo-EM structure, 2.2 Å” value was “show an acetyl-CoA molecule bound to E1o allosteric site which could be positioned unambiguously”.

B1: Mycobacterium smegmatis KGD, full-length (enzyme, UniProt A0R2B1 1-1227, looked up)
chain: MSSSPSPFGQNEWLVEEMYRKFRDDPSSVDPSWHEFLVDYSPEPTTDSASNGRTTTAAPVTPPTPAPAPAPEPKAAPKPAAKTEAKPAKPAKSATPAKGDESQILRGAAAAVVKNMNASLEVPTATSVRAIPAKLMIDNRVVINNHLKRTRGGKISFTHLLGYAIVQAVKKFPNMNRHFAVVDGKPTAITPAHTNLGLAIDLQGKDGNRSLVVAAIKRCETMRFGQFIAAYEDIVRRARDGKLTAEDFSGVTISLTNPGTLGTVHSVPRLMQGQGAIIGAGAMEYPAEFQGASEERIADLGIGKLITLTSTYDHRIIQGAESGDFLRTIHQLLLDDDFFDEIFRELGIPYEPVRWRTDNPDSIEDKNARVIELIAAYRNRGHLMADIDPLRLDNTRFRSHPDLDVNSHGLTLWDLDREFKVDGFAGVQRKKLRDILSVLRDAYCRHVGVEYTHILEPEQQRWIQERVETKHDKPTVAEQKYILSKLNAAEAFETFLQTKYVGQKRFSLEGAETVIPMMDAVIDQCAEHGLDEVVIAMPHRGRLNVLANIVGKPYSQIFSEFEGNLNPSQAHGSGDVKYHLGATGTYIQMFGDNDIEVSLTANPSHLEAVDPVLEGLVRAKQDLLDTGEEGSDNRFSVVPLMLHGDAAFAGQGVVAETLNLALLRGYRTGGTIHIVVNNQIGFTTAPTDSRSSEYCTDVAKMIGAPIFHVNGDDPEACAWVARLAVDFRQAFKKDVVIDMLCYRRRGHNEGDDPSMTQPYMYDVIDTKRGSRKAYTEALIGRGDISMKEAEDALRDYQGQLERVFNEVRELEKHEIEPSESVEADQQIPSKLATAVDKAMLQRIGDAHLALPEGFTVHPRVRPVLEKRREMAYEGRIDWAFAELLALGSLIAEGKLVRLSGQDTQRGTFTQRHAVIVDRKTGEEFTPLQLLATNPDGTPTGGKFLVYNSALSEFAAVGFEYGYSVGNPDAMVLWEAQFGDFVNGAQSIIDEFISSGEAKWGQLSDVVLLLPHGHEGQGPDHTSGRIERFLQLWAEGSMTIAMPSTPANYFHLLRRHGKDGIQRPLIVFTPKSMLRNKAAVSDIRDFTESKFRSVLEEPMYTDGEGDRNKVTRLLLTSGKIYYELAARKAKENREDVAIVRIEQLAPLPRRRLAETLDRYPNVKEKFWVQEEPANQGAWPSFGLTLPEILPDHFTGLKRISRRAMSAPSSGSSKVHAVEQQEILDTAFG
notes: KGD (two-in-one 2-oxoglutarate dehydrogenase, E2o and E1o domains on one chain), Mycobacterium smegmatis, full-length protein; Crystallised with 2 mM ThDP and 5 mM MgCl2; also called MsKGD; mycobacterial KGD; source: E. coli BL21(DE3)pLysS, purified as previously described
With B1, the “stoichiometry N” value in data set [1] is 6.

B2: Corynebacterium glutamicum OdhA, full-length (residues 1-1221) (enzyme, Corynebacterium glutamicum ATCC13032, UniProt Q8NRC3 1-1221, looked up)
chain: MSSASTFGQNAWLVDEMFQQFQKDPKSVDKEWRELFEAQGGPNTTPATTEAQPSAPKESAKPAPKAAPAAKAAPRVETKPADKTAPKAKESSVPQQPKLPEPGQTPIRGIFKSIAKNMDISLEIPTATSVRDMPARLMFENRAMVNDQLKRTRGGKISFTHIIGYAMVKAVMAHPDMNNSYDVIDGKPTLIVPEHINLGLAIDLPQKDGSRALVVAAIKETEKMNFSEFLAAYEDIVARSRKGKLTMDDYQGVTVSLTNPGGIGTRHSVPRLTKGQGTIIGVGSMDYPAEFQGASEDRLAELGVGKLVTITSTYDHRVIQGAVSGEFLRTMSRLLTDDSFWDEIFDAMNVPYTPMRWAQDVPNTGVDKNTRVMQLIEAYRSRGHLIADTNPLSWVQPGMPVPDHRDLDIETHNLTIWDLDRTFNVGGFGGKETMTLREVLSRLRAAYTLKVGSEYTHILDRDERTWLQDRLEAGMPKPTQAEQKYILQKLNAAEAFENFLQTKYVGQKRFSLEGAEALIPLMDSAIDTAAGQGLDEVVIGMPHRGRLNVLFNIVGKPLASIFNEFEGQMEQGQIGGSGDVKYHLGSEGQHLQMFGDGEIKVSLTANPSHLEAVNPVMEGIVRAKQDYLDKGVDGKTVVPLLLHGDAAFAGLGIVPETINLAKLRGYDVGGTIHIVVNNQIGFTTTPDSSRSMHYATDYAKAFGCPVFHVNGDDPEAVVWVGQLATEYRRRFGKDVFIDLVCYRLRGHNEADDPSMTQPKMYELITGRETVRAQYTEDLLGRGDLSNEDAEAVVRDFHDQMESVFNEVKEGGKKQAEAQTGITGSQKLPHGLETNISREELLELGQAFANTPEGFNYHPRVAPVAKKRVSSVTEGGIDWAWGELLAFGSLANSGRLVRLAGEDSRRGTFTQRHAVAIDPATAEEFNPLHELAQSKGNNGKFLVYNSALTEYAGMGFEYGYSVGNEDSIVAWEAQFGDFANGAQTIIDEYVSSGEAKWGQTSKLILLLPHGYEGQGPDHSSARIERFLQLCAEGSMTVAQPSTPANHFHLLRRHALSDLKRPLVIFTPKSMLRNKAAASAPEDFTEVTKFQSVINDPNVADAAKVKKVMLVSGKLYYELAKRKEKDGRDDIAIVRIEMLHPIPFNRISEALAGYPNAEEVLFVQDEPANQGPWPFYQEHLPELIPNMPKMRRVSRRAQSSTATGVAKVHQLEEKQLIDEAFEA
notes: OdhA (E2o succinyltransferase and E1o 2-oxoglutarate decarboxylase domains on one chain), C. glutamicum ATCC13032, Uniprot Q8NRC3, residues 1-1221; TEV site (ENLYFQG) between the vector's His6-tag and the N-terminus; In the maps the chain is traced from Pro102; also called corynebacterial OdhA; source: E. coli BL21(DE3), purified (Ni-NTA, TEV cleavage, SEC); not shown: His6, N-terminal, cleaved
For B2, the “stoichiometry N” value in data set [2] is 6.

B3: OdhAΔ97 (C. glutamicum OdhA residues 98-1221) (domain or fragment, Corynebacterium glutamicum ATCC13032, UniProt Q8NRC3 98-1221, looked up)
chain: KLPEPGQTPIRGIFKSIAKNMDISLEIPTATSVRDMPARLMFENRAMVNDQLKRTRGGKISFTHIIGYAMVKAVMAHPDMNNSYDVIDGKPTLIVPEHINLGLAIDLPQKDGSRALVVAAIKETEKMNFSEFLAAYEDIVARSRKGKLTMDDYQGVTVSLTNPGGIGTRHSVPRLTKGQGTIIGVGSMDYPAEFQGASEDRLAELGVGKLVTITSTYDHRVIQGAVSGEFLRTMSRLLTDDSFWDEIFDAMNVPYTPMRWAQDVPNTGVDKNTRVMQLIEAYRSRGHLIADTNPLSWVQPGMPVPDHRDLDIETHNLTIWDLDRTFNVGGFGGKETMTLREVLSRLRAAYTLKVGSEYTHILDRDERTWLQDRLEAGMPKPTQAEQKYILQKLNAAEAFENFLQTKYVGQKRFSLEGAEALIPLMDSAIDTAAGQGLDEVVIGMPHRGRLNVLFNIVGKPLASIFNEFEGQMEQGQIGGSGDVKYHLGSEGQHLQMFGDGEIKVSLTANPSHLEAVNPVMEGIVRAKQDYLDKGVDGKTVVPLLLHGDAAFAGLGIVPETINLAKLRGYDVGGTIHIVVNNQIGFTTTPDSSRSMHYATDYAKAFGCPVFHVNGDDPEAVVWVGQLATEYRRRFGKDVFIDLVCYRLRGHNEADDPSMTQPKMYELITGRETVRAQYTEDLLGRGDLSNEDAEAVVRDFHDQMESVFNEVKEGGKKQAEAQTGITGSQKLPHGLETNISREELLELGQAFANTPEGFNYHPRVAPVAKKRVSSVTEGGIDWAWGELLAFGSLANSGRLVRLAGEDSRRGTFTQRHAVAIDPATAEEFNPLHELAQSKGNNGKFLVYNSALTEYAGMGFEYGYSVGNEDSIVAWEAQFGDFANGAQTIIDEYVSSGEAKWGQTSKLILLLPHGYEGQGPDHSSARIERFLQLCAEGSMTVAQPSTPANHFHLLRRHALSDLKRPLVIFTPKSMLRNKAAASAPEDFTEVTKFQSVINDPNVADAAKVKKVMLVSGKLYYELAKRKEKDGRDDIAIVRIEMLHPIPFNRISEALAGYPNAEEVLFVQDEPANQGPWPFYQEHLPELIPNMPKMRRVSRRAQSSTATGVAKVHQLEEKQLIDEAFEA
notes: OdhA, C. glutamicum ATCC13032, Uniprot Q8NRC3, residues 98-1221 (without the flexible N-terminal segment); Crystallised with 5 mM CoASH; source: E. coli BL21(DE3), purified (Ni-NTA, TEV cleavage, SEC); not shown: His6, N-terminal, cleaved
In the case of B3, the “stoichiometry N” value in data set [3] came to 6.
